Experimental findings from paper PMC3843637 are described below.

pKd: −log10 of the molar value.

The test concerns the target MAN1 fragment from amino acids 658 to 911 (MAN1C) (human) (UniProt Q9Y2U8). The experiment in a line: SEC + NMR titration.

Chain of MAN1 fragment from amino acids 658 to 911 (MAN1C) (human) (Q9Y2U8 658-911): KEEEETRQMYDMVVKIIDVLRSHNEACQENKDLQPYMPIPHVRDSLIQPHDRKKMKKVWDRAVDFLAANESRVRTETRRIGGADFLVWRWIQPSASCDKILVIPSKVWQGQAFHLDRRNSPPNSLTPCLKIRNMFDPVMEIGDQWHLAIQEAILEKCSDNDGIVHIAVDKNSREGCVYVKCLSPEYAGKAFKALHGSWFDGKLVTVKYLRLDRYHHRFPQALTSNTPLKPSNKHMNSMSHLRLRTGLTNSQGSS

Regarding “PPM1A (from UniProt P35813 1-382) (enzyme)”, the pKd is 3.30 to 5.00.

As a reminder, the pKd is the negative decadic logarithm of the Kd, by convention in mol/L.
